The values below come from patent US20230124669A1 (ADAGENE, published 2023).

As a reminder, the Kd is the free concentration of one partner at which half of the binding sites on the other are occupied at equilibrium, for simple one-to-one binding. A high value points to weaker binding.

For assay [1], the target named is T1, human CD3 (E and δ chain heterodimer) fused with human Fc fragment (human, UniProt P07766 23-126; P04234 22-105).
T1 construct: ELISA coating antigen; the text prints 'E and 6 chain heterodimer', read as epsilon and delta
In words: ELISA, plate coated with 2 µg/mL antigen-human Fc fusion, serially diluted IgG. How it is done:
2 μg/mL of human HER2 or CD3 (E and 6 chain heterodimer) fused with human Fc fragment, were prepared and used to coat the ELISA plate at 2-8′C overnight. After washing and blocking, 50 μL serial diluted IgGs were added and incubated at 37′C for 1 hour. Plates were washed three times and then incubated with 50 μL/well TMB substrate at room temperature for about 20 minutes. Absorbance at 450 nm was measured after the reaction was stopped. The data was analyzed by GraphPad Prism 6 with nonlinear fitting.
A general note: An ELISA detects its analyte on a solid surface through an enzyme-linked reagent.

Assay [2] concerns the target HER2 on HER2-positive tumor cells (SKOV3) (UniProt P04626 23-1255). Briefly: cell-based or functional assay.
Assay [3] deals with T2, mouse CD137 expressed on cells (mouse, UniProt P20334 24-256).
T2 construct: whole, on cells
T2 sequence (looked up): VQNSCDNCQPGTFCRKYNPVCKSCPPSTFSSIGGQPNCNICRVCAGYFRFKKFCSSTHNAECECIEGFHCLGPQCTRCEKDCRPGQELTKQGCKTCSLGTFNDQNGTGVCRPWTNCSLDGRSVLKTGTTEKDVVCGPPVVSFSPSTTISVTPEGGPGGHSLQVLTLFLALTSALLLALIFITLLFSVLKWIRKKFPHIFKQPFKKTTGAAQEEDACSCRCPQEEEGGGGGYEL
Briefly: told in words; cross-reactivity by flow cytometry on antigen-expressing cells (FIG. 13). The protocol: (§1) The affinity of antibodies was also assessed against human, monkey and mouse CD137 or PDL1 that were transiently expressed on the surface of yeast or HEK293F cells. Briefly, yeast or HEK293F cells were transfected with a plasmid expressing human, monkey or mouse CD137 or PDL1. After 48 hours, the transfected cells were harvested and then washed. Cells were then incubated with IgGs (each at 100 nM) at 4° C. in the shaking bed for 1 hour shaking at 300 rpm, protected from light. For simultaneously binding, cell were incubated with biotinylated human CD137 or PDL1 protein fused with human Fc fragment, and SA-PE (streptavidin, phycoerythrin conjugated). For cross-reactivity, cells were incubated with Alexa Fluor 647 conjugated mouse anti-human Fc antibodies. The mixtures were incubated at 4° C. in the shaking bed for 30 minutes shaking at 300 rpm, protected from light. The cells were washed once prior to analysis by flow cytometry (Beckman CytoFlex).
In general terms: In flow cytometry, cells or beads pass a laser one at a time.

The target in assay [4] is T3, mouse PDL1 expressed on cells (mouse, UniProt Q9EP73 19-290).
T3 construct: whole, on cells
Described as above. The protocol:
as §1

Assay [5] has as its target T3, mouse PDL1 expressed on cells. In words: flow cytometry, antigen transiently expressed on yeast or HEK293F cells, IgG at 100 nM, Alexa Fluor 647 anti-human Fc detection (FIG. 13). How it is done: as §1
Assay [6] has as its target T2, mouse CD137 expressed on cells. The description is as above. How it is done:
as §1

Assay [7] deals with T4, Human CD137 (SPR analyte) (human, UniProt Q07011 24-186, limits assumed).
T4 construct: also called CD137H
Briefly: SPR (Biacore T200), antibody captured by anti-human IgG on CM5 chip, antigen injected as analyte, 1:1 Langmuir fit. The protocol: (§2) Biacore T200 (GE Healthcare) was used as a high performance system for real-time biomolecular interaction analysis, using surface plasmon resonance technology (“SPR”). During the measurement, anti-human IgG monoclonal antibody from the Human Antibody Capture Kit provided by Biacore was immobilized on CM5 chips, and IgG sample was injected onto sensor chip. Analytes were injected onto IgG captured flow cell for binding kinetic analysis in HBS-EP buffer.
(SPR reads the build-up and loss of mass on a sensor chip optically.)

Another assay addresses T5, Human PDL1 (SPR analyte) (human, UniProt Q9NZQ7 19-238, limits assumed).
T5 construct: also called PDL1H
The assay is described as above. How it is done:
as §2

T3 sequence (Q9EP73 19-290): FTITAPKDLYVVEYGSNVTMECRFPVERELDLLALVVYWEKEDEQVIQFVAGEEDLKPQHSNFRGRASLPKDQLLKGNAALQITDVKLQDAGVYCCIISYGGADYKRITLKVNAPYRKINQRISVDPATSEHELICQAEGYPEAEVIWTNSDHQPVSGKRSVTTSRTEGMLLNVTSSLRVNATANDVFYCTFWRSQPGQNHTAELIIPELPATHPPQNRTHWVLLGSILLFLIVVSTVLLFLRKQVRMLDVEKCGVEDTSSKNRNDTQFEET
T1 sequence (P07766 23-126, stated change not applied, chain 1 of 2): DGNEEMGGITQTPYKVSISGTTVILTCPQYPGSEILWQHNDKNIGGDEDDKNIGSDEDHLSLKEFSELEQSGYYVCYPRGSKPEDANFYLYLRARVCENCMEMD
T1 sequence (P04234 22-105, stated change not applied, chain 2 of 2): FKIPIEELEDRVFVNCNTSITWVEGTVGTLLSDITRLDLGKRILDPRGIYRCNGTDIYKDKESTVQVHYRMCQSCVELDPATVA
T5 sequence (Q9NZQ7 19-238 limits assumed): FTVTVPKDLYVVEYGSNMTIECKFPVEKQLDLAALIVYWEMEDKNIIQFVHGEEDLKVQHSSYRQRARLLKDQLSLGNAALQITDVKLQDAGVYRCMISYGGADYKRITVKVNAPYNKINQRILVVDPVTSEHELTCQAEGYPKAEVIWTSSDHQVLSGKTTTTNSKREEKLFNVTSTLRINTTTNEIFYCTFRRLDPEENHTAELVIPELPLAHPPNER

B1: TY24051 (bispecific antibody)
heavy: not shown
chain: not shown
light: QAVVTQEPSLTVSPGGTVTLTCGSSTGAVTTSNYANWVQQKPGQAPRGLIGGTNKRAPGVPARFSGSLLGGKAALTLSGAQPEDEAEYYCALWYSNLWVFGGGTKLTVLRGGGGSGGGGSGGGGSGGGGSEVQLVESGGGLVQPGGSLRLSCAASGFTFNTYAMNWVRQAPGKGLEWVGRIRSKYNNYATYYADSVKGRFTISRDDSKNTLYLQMNSLRAEDTAVYYCVRHGNFGNSYVSWFAYWGQGTLVTVSSEPKSSDKTHTCPPCPAPELLGGPSVFLFPPKPKDTLMISRTPEVTCVVVDVSHEDPEVKFNWYVDGVEVHNAKTKPREEQYASTYRVVSVLTVLHQDWLNGKEYKCKVSNKALPAPIEKTISKAKGQPREPQVYTDPPSRDELTKNQVSLTCLVDGFYPSDIAVEWESNGQPENCYKTTPPVLDSDGSFFLYSKLTVDKSRWQQGNVFSCSVMHEALHNHYTQDSLSLSPGK
notes: Anti-HER2 Fab arm and anti-CD3 scFv arm, IgG1 Fc with TYM13 mutations and N297A; also called HER2×CD3 bispecific T-cell-engaging antibody; parental bispecific Fab X scFv in IgG1
B1: in assay [1], the binding result was “binds”.

B2: TY24052 (bispecific antibody)
heavy: not shown
chain: not shown
light: EVGSYPYDDPDCPSHDSDCDNSGRSAGGGGTPLGLAGSGGSQAVVTQEPSLTVSPGGTVTLTCGSSTGAVTTSNYANWVQQKPGQAPRGLIGGTNKRAPGVPARFSGSLLGGKAALTLSGAQPEDEAEYYCALWYSNLWVFGGGTKLTVLRGGGGSGGGGSGGGGSGGGGSEVQLVESGGGLVQPGGSLRLSCAASGFTFNTYAMNWVRQAPGKGLEWVGRIRSKYNNYATYYADSVKGRFTISRDDSKNTLYLQMNSLRAEDTAVYYCVRHGNFGNSYVSWFAYWGQGTLVTVSSEPKSSDKTHTCPPCPAPELLGGPSVFLFPPKPKDTLMISRTPEVTCVVVDVSHEDPEVKFNWYVDGVEVHNAKTKPREEQYASTYRVVSVLTVLHQDWLNGKEYKCKVSNKALPAPIEKTISKAKGQPREPQVYTDPPSRDELTKNQVSLTCLVDGFYPSDIAVEWESNGQPENCYKTTPPVLDSDGSFFLYSKLTVDKSRWQQGNVFSCSVMHEALHNHYTQDSLSLSPGK
notes: Masked, cleavable version of TY24051, uncleaved; IgG1 Fc with TYM13 mutations and N297A; also called SAFEbody
Turning to B2, the binding result in assay [1] is listed as “binds”. Besides, in assay [2], the “EC50 of T-cell mediated killing of SKOV3 cells, fold increase compared with TY24051” value was about 800 fold.

B3: anti-CD137 Fv (antibody, V domains shown)
VH: EVQLVESGGGLVQPGGSLRLSCAASGFSLSTGGVGVGWIRQAPGKGLEWLALIDWADDKYYSPSLKSRLTISRDNSKNTLYLQLNSLRAEDTAVYYCARGGSDTVIGDWFAYWGQGTLVTVSS
VL: DIQLTQSPSSLSASVGDRVTITCRASQSIGSYLAWYQQKPGKAPKLLIYDASNLETGVPSRFSGSGSGTDFTLTISSLQPEDFATYYCQQGYYLWTFGQGTKVEIKR
notes: Named only as the anti-CD137 Fv used in the bispecific and parental antibodies; also called CD137 VH / CD137 VL
Turning to B3, in assay [3], the binding result is on record as “binds”.

B4: anti-PDL1 Fv (antibody, V domains shown)
VH: EVQLVESGGGLVQPGGSLRLSCAASGYSISSGYYWGWIRQAPGKGLEWIGIIYPSGGGTNYAQKFQGRVTISRDNSKNTLYLQLNSLRAEDTAVYYCARGGGLGFDYWGQGTLVTVSS
VL: DIQLTQSPSSLSASVGDRVTITCRASQSIPSFLNWYQQKPGKAPKLLIYAASSLQSGVPSRFSGSGSGTDFTLTISSLQPEDFATYYCQHYISWPRQFTFGQGTKVEIKR
notes: Named only as the anti-PDL1 Fv used in the bispecific and parental antibodies; also called PDL1 VH / PDL1 VL
Take B4: the binding result in assay [4] is recorded as “binds”.

B5: TY22121 (bispecific antibody, human IgG1, kappa)
heavy: DIQLTQSPSSLSASVGDRVTITCRASQSIPSFLNWYQQKPGKAPKLLIYAASSLQSGVPSRFSGSGSGTDFTLTISSLQPEDFATYYCQHYISWPRQFTFGQGTKVEIKRTVAAPSVFIFPPSDEQLKSGTASVVCLLNNFYPREAKVQWKVDNALQSGNSQESVTEQDSKDSTYSLSSTLTLSKADYEKHKVYACEVTHQGLSSPVTKSFNRGEC
light: not shown
notes: Morrison format: anti-PDL1 Fab, anti-CD137 scFv at the C-terminus of the Fc; IgG1; heavy chain = VH-CH1-hinge-CH2-CH3-linker-scFv; also called PDL1 × CD137 bispecific antibody, format TYF01
Consider B5, for which the binding result in assay [5] and in assay [6] was “binds” throughout. Also, the Kd was found to be 14.1 nM in assay [7] and 6.9 nM with Human PDL1 (SPR analyte).

B6: TY22148 (bispecific antibody, human IgG1, kappa)
heavy: DIQLTQSPSSLSASVGDRVTITCRASQSIPSFLNWYQQKPGKAPKLLIYAASSLQSGVPSRFSGSGSGTDFTLTISSLQPEDFATYYCQHYISWPRQFTFGQGTKVEIKRTVAAPSVFIFPPSDEQLKSGTASVVCLLNNFYPREAKVQWKVDNALQSGNSQESVTEQDSKDSTYSLSSTLTLSKADYEKHKVYACEVTHQGLSSPVTKSFNRGEC
light: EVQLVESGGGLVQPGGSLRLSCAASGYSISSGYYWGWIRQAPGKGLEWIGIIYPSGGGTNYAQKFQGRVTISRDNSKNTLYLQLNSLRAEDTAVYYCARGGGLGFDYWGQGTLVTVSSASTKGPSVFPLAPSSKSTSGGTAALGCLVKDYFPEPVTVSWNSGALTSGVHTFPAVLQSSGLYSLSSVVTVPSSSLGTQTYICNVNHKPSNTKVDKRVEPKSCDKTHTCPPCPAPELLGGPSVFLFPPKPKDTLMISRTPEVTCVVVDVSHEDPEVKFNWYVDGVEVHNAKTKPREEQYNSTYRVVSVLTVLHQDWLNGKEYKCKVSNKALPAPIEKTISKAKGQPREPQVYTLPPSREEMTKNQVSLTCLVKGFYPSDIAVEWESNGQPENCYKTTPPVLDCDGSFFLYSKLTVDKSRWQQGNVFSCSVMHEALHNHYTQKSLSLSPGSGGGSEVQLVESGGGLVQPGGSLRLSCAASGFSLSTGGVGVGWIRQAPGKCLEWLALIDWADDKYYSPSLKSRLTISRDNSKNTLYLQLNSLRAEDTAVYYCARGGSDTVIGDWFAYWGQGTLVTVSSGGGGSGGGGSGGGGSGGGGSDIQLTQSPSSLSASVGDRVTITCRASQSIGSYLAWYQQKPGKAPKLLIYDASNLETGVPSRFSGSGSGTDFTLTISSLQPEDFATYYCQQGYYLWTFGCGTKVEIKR
notes: Morrison format: anti-PDL1 Fab, anti-CD137 scFv; IgG1 with N390C:S400'C; also called PDL1 × CD137 bispecific antibody, format TYF02
On to B6, for which the binding result in assay [5] and in assay [6] was “binds” in each case. The Kd came to 6.7 nM in assay [7] and 7.7 nM in the assay with Human PDL1 (SPR analyte).
